Assay results taken from the supplement of paper PMC7877785.
± gives the uncertainty stated by the source.

Experiment: self-splicing fitness, log relative to wild type (ln ratio); higher = more splicing; Tetrahymena group I intron in knt gene, E. coli kanamycin selection, DiMSum; sequences stand for … in CUCUCU…GGAGGGAAAAGUUAUCAGGCAUGCACCUGGUAGCUAGUCUUUAAACCAAUAGAUUGCAUCGGUUUAAAAGGCAAGACCGUCAAAUUGCGGGAAAGGGGUCAACAGCCGUUCAGUACCAAGUCUCAGGGGAAACUUUGAGAUGGCCUUGCAAAGGGUAUGGUAAUAAGCUGACGGACAUGGUCCUAACCACGCAGCCAAGUCCUAAGUCAACAGAUCUUCUGUUGAUAUGGAUGCAGUUCACAGACUAAAUGUCGGUCGGGGAAGAUGUAUUCUUCUCAUAAGAUAUAGUCGGACCUCUCCUUAAUGGGAGCUAGCGGAUGAAGUGAUGCAACACUGGAGCCGCUGGGAACUAAUUUGUAUGCGAAAGUAUAUUGAUUAGUUUUGGAGUACUCGUGGUCG
Summary of the method: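 Pooled colonies went to amplicon sequencing on an Illumina HiSeq 2500 after six replicate transformations. The plates were LB agar with 100 μg/mL carbenicillin, 50 μM IPTG and 0.2% rhamnose, with or without 25 μg/mL kanamycin, incubated overnight at 37°C or 30°C. The E. coli BL21(DE3) library had all eight P1ex-region intron nucleotides randomised, the intron placed in the knt kanamycin-resistance gene on pET-22b(+). DiMSum fitness is the error-weighted combination of replicate fold changes, kanamycin against none, normalised to wild type.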

Sequence	self-splicing fitness (ln) (30 °C)	self-splicing fitness (ln) (37 °C)
GGCUAGCAAUAUUACGGGUU	-1.9 ± 0.096	-0.879 ± 0.09
GGCUAGCAAUAUUACGGUAU	-0.65 ± 0.061	0.376 ± 0.084
GGCUAGCAAUAUUACGGUGG	-1.23 ± 0.096	-0.767 ± 0.1
GGCUAGCAAUAUUACGUCAC	-2.28 ± 0.16	-1.01 ± 0.17
GGCUAGCAAUAUUACGUCGG	-3.95 ± 0.29	-2.61 ± 0.26
GGCUAGCAAUAUUACGUCGU	0.26 ± 0.075	0.153 ± 0.092
GGCUAGCAAUAUUACGUGAU	-0.939 ± 0.099	-0.509 ± 0.11
GGCUAGCAAUAUUACGUGCU	-2.34 ± 0.24	-1.27 ± 0.14
GGCUAGCAAUAUUACGUGUC	-1.67 ± 0.18	-1.26 ± 0.23
GGCUAGCAAUAUUACGUUAU	-0.733 ± 0.072	-0.394 ± 0.091
GGGAAGCAAUAUUACGAAAC	-0.695 ± 0.14	-0.469 ± 0.17
GGGAAGCAAUAUUACGAACA	-1.2 ± 0.13	-0.445 ± 0.14
GGGAAGCAAUAUUACGAACG	-0.494 ± 0.086	0.55 ± 0.16
GGGAAGCAAUAUUACGACGC	-0.0345 ± 0.14	-0.0751 ± 0.18
GGGAAGCAAUAUUACGAGCG	-1.41 ± 0.12	-0.447 ± 0.15
GGGAAGCAAUAUUACGAUGC	0.369 ± 0.12	0.306 ± 0.13
GGGAAGCAAUAUUACGCACA	-2.53 ± 0.26	-0.142 ± 0.41
GGGAAGCAAUAUUACGCCUU	-1.8 ± 0.17	0.48 ± 0.15
GGGAAGCAAUAUUACGCGAA	-0.913 ± 0.14	-0.969 ± 0.2
GGGAAGCAAUAUUACGCGAG	-1.06 ± 0.33	-1.27 ± 0.47
GGGAAGCAAUAUUACGCUAG	-1.73 ± 0.18	-1.01 ± 0.2
GGGAAGCAAUAUUACGCUGG	-2.97 ± 0.23	-1.73 ± 0.18
GGGAAGCAAUAUUACGCUUA	-0.798 ± 0.12	-0.449 ± 0.12
GGGAAGCAAUAUUACGCUUG	-1.61 ± 0.21	-0.729 ± 0.2
GGGAAGCAAUAUUACGGAUG	-3.55 ± 0.21	-1.15 ± 0.15
GGGAAGCAAUAUUACGGCAA	-0.863 ± 0.14	-1.02 ± 0.14

Sequence	self-splicing fitness (ln) (30 °C)	self-splicing fitness (ln) (37 °C)
GGGAAGCAAUAUUACGGCUG	-0.935 ± 0.13	-0.54 ± 0.17
GGGAAGCAAUAUUACGGGCG	-1.14 ± 0.13	-0.362 ± 0.15
GGGAAGCAAUAUUACGGGUA	-0.928 ± 0.2	-2.25 ± 0.23
GGGAAGCAAUAUUACGGUGC	-1.17 ± 0.17	-0.397 ± 0.22
GGGAAGCAAUAUUACGUACG	-0.982 ± 0.15	-0.441 ± 0.18
GGGAAGCAAUAUUACGUACU	-2.15 ± 0.21	-2.2 ± 0.22
GGGAAGCAAUAUUACGUAUG	-2.95 ± 0.16	-1.11 ± 0.15
GGGAAGCAAUAUUACGUCAA	-1.34 ± 0.32	–
GGGAAGCAAUAUUACGUCUG	0.292 ± 0.099	-0.174 ± 0.12
GGGAAGCAAUAUUACGUUCA	0.0857 ± 0.1	-0.473 ± 0.14
GGGAAGCAAUAUUACGUUGA	-3.37 ± 0.23	-1.94 ± 0.18
GGGAAGCAAUAUUACGUUGC	-3.92 ± 0.42	–
GGGCAGCAAUAUUACGACUU	0.0195 ± 0.16	-0.0822 ± 0.19
GGGCAGCAAUAUUACGAUUU	-0.054 ± 0.053	-0.281 ± 0.065
GGGCAGCAAUAUUACGCCAU	-1.69 ± 0.12	-1.21 ± 0.13
GGGCAGCAAUAUUACGCGAU	-2.41 ± 0.39	-1.8 ± 0.28
GGGCAGCAAUAUUACGCUGA	-1.25 ± 0.12	-0.998 ± 0.15
GGGCAGCAAUAUUACGCUUC	–	-1.85 ± 0.17
GGGCAGCAAUAUUACGGACA	-1.97 ± 0.38	-0.246 ± 0.39
GGGCAGCAAUAUUACGGACC	-0.717 ± 0.25	0.0103 ± 0.36
GGGCAGCAAUAUUACGGAGU	-2.8 ± 0.12	-1.78 ± 0.11
GGGCAGCAAUAUUACGGCAG	-2.41 ± 0.13	-0.994 ± 0.14
GGGCAGCAAUAUUACGGCCG	-1.5 ± 0.16	-1.59 ± 0.26
GGGCAGCAAUAUUACGGGCC	-2.96 ± 0.2	-2.66 ± 0.31
GGGCAGCAAUAUUACGGUAG	-3.2 ± 0.19	-1.34 ± 0.19
GGGCAGCAAUAUUACGGUAU	-1.06 ± 0.081	-0.373 ± 0.13

Sequence	self-splicing fitness (ln) (30 °C)	self-splicing fitness (ln) (37 °C)
GGGCAGCAAUAUUACGUACU	-0.53 ± 0.098	-0.834 ± 0.11
GGGCAGCAAUAUUACGUAGC	-1.79 ± 0.22	-0.913 ± 0.28
GGGCAGCAAUAUUACGUAGG	-2.38 ± 0.075	-1.32 ± 0.091
GGGCAGCAAUAUUACGUCAG	-1.19 ± 0.087	-0.138 ± 0.11
GGGCAGCAAUAUUACGUCCU	–	-3.02 ± 0.32
GGGCAGCAAUAUUACGUCUA	0.309 ± 0.1	-1.04 ± 0.1
GGGCAGCAAUAUUACGUGGG	-3.1 ± 0.12	-2.62 ± 0.13
GGGGAGCAAUAUUACGAAGU	-2.04 ± 0.34	–
GGGGAGCAAUAUUACGACAC	-0.721 ± 0.14	-0.843 ± 0.24
GGGGAGCAAUAUUACGACGG	-3.76 ± 0.46	–
GGGGAGCAAUAUUACGACGU	-0.89 ± 0.12	-0.094 ± 0.15
GGGGAGCAAUAUUACGAUUG	-2.02 ± 0.45	-1.67 ± 0.45
GGGGAGCAAUAUUACGCAUA	-3.29 ± 0.48	-2.28 ± 0.32
GGGGAGCAAUAUUACGCGUG	-1.75 ± 0.13	-1.96 ± 0.17
GGGGAGCAAUAUUACGGGCC	–	-1.4 ± 0.28
GGGGAGCAAUAUUACGGGUG	-3.57 ± 0.23	-2.9 ± 0.43
GGGGAGCAAUAUUACGGUCU	-3.73 ± 0.4	-0.856 ± 0.31
GGGGAGCAAUAUUACGGUUG	-3.25 ± 0.21	-2.18 ± 0.22
GGGGAGCAAUAUUACGGUUU	-1.27 ± 0.24	-0.456 ± 0.29
GGGGAGCAAUAUUACGUAUG	–	-1.58 ± 0.31
GGGGAGCAAUAUUACGUCGC	–	-0.104 ± 0.44
GGGGAGCAAUAUUACGUGAU	-2.84 ± 0.25	-1.8 ± 0.26
GGGGAGCAAUAUUACGUUUC	-2.65 ± 0.2	-2.64 ± 0.29
GGGUAGCAAUAUUACGACCA	-0.444 ± 0.23	-0.732 ± 0.42
GGGUAGCAAUAUUACGACGA	-0.202 ± 0.15	-0.379 ± 0.14
GGGUAGCAAUAUUACGAUAG	-2.32 ± 0.37	–
